In this series the target is PDGF-BB (platelet-derived growth factor BB) (Homo sapiens) (UniProt P01127). Put plainly: filter.
Where [1] appears, read: all Z are BndU, rest DNA, SB18T, 37 C.
The mark [2] stands for this setting: all P are NapdU, rest DNA, SB18T, 37 C.

pKd: −log10 of the molar value.

Chain of PDGF-BB (platelet-derived growth factor BB) (Homo sapiens) (P01127 82-190): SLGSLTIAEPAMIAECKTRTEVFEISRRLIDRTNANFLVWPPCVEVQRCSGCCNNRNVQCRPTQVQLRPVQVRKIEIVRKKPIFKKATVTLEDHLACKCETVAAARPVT

Under setting [1], “ACACGCGTTTATAGCGTCAACCCGAGTGAACA [4149-8_19]” showed a pKd of 7.13.
“ACAGCATGTATGCACATCTAGAGGCTACCCAGTGAA [5169-4_14]” gave a pKd under setting [2] of 9.77.
Where the note is “Bn-dU”, “ACTACGTTACACGCGTTTATAGCGTCAACCCGAGTGAACA [4149-8_15]” had a pKd of under 8.00.
The sequence “ATCTCTTACGACTACGTTACACGCGTTTATAGCGTC [4149-8_10]” showed a pKd under setting [1] of 10.30.
On the same count and under the same terms, the figure for “ATCTCTTACGACTACGTTACACGCGTTTATAGCGTCAA [4149-8_9]” is 10.52; for “ATCTCTTACGACTACGTTACACGCGTTTATAGCGTCAACCCG [4149-8_7]” it is 10.70; for “ATCTCTTACGACTACGTTACACGCGTTTATAGCGTCAACCCGAGTG [4149-8_5]” it is 10.70.
For “ATCTCTTACGACTACGTTACACGCGTTTATAGCGTCAACCCGAGTGAACA [4149-8_2]”, the pKd (all Z are BndU (5-(N-benzylcarboxamide)-2'-deoxyuridine), rest DNA, SB18T, 37 C, Zorbax partition) was 10.30.
Regarding CACAGCATGTATGCACATCT [5169-4_60], the pKd (C3 spacer at 2, NapdU at 9,11,13,19,21, C3 spacer walk) is 7.57.
With “CAGCATGTATGCACATCTAGAGGCTACCCAGTGAATGAGGA [5169-4_6]”, the pKd under setting [2] is 7.17.
The sequence “CCTCGACAGCATGTATGCACATCTAGAGGCTACCCAGTGAATGAGGA [5169-4_4]” had a pKd (NapdU at P, SB18T, 37 C) of 10.57.
The sequence CGAAGCATGTATGCACATCT [5169-4_62] gave a pKd (C3 spacer at 4, NapdU at 9,11,13,19,21, C3 spacer walk) of 7.38.
With CGACACATGTATGCACATCT [5169-4_64], the pKd (C3 spacer at 6, NapdU at 9,11,13,19,21, C3 spacer walk) is 10.27.
On to CGACAGATGTATGCACATCT [5169-4_65], for which, where the note is “NapdU at P, C3 spacer at 7”, the pKd was 10.13.
CGACAGCATGTATCACATCT [5169-4_72] showed a pKd (C3 spacer at 14, NapdU at 9,11,13,19,21, C3 spacer walk) of 6.64.
For CGACAGCATGTATGACATCT [5169-4_73], the pKd (C3 spacer at 15, NapdU at 9,11,13,19,21, C3 spacer walk) is 10.82.
CGACAGCATGTATGCAATCT [5169-4_75] showed a negative-log Kd (pKd) (NapdU at P, C3 spacer at 17) of 9.85.
For the sequence CGACAGCATGTATGCACATCT [5169-4_33], under “NapdU at P, 2'-OMe 1”, the pKd is 10.57.
Consider CGACAGCATGTATGCACATCT [5169-4_34], for which the pKd (NapdU at P, 2'-OMe 4) is 10.48.
Under “NapdU at P, 2'-OMe 7”, CGACAGCATGTATGCACATCT [5169-4_35] gave a pKd of 10.80.
Take CGACAGCATGTATGCACATCT [5169-4_36]: the pKd (NapdU at P, 2'-OMe 15) was 10.55.
For CGACAGCATGTATGCACATCT [5169-4_37], under “NapdU at P, 2'-OMe 17”, the negative-log Kd (pKd) was 10.39.
Consider CGACAGCATGTATGCACATCT [5169-4_38], for which, where the note is “NapdU at P, 2'-OMe 20”, the pKd is 10.66.
For the setting “NapdU at P, 2'-OMe 2”, CGACAGCATGTATGCACATCT [5169-4_39] gave a pKd of 10.24.
Under “NapdU at P, 2'-OMe 6”, CGACAGCATGTATGCACATCT [5169-4_40] gave a negative-log Kd (pKd) of 10.62.
CGACAGCATGTATGCACATCT [5169-4_41] showed a pKd (NapdU at P, 2'-OMe 10) of 10.01.
Under “2'-OMe G14, NapdU at 9,11,13,19,21, 2'-OMe substitution”, CGACAGCATGTATGCACATCT [5169-4_42] showed a pKd of 11.16.
The sequence CGACAGCATGTATGCACATCT [5169-4_43] had a pKd (NapdU at P, 2'-OMe 3) of 9.80.
In the case of CGACAGCATGTATGCACATCT [5169-4_44], for the setting “2'-OMe A5, NapdU at 9,11,13,19,21, 2'-OMe substitution”, the pKd was 9.28.
With CGACAGCATGTATGCACATCT [5169-4_45], the pKd (2'-OMe A8, NapdU at 9,11,13,19,21, 2'-OMe substitution) was 9.03.
Sequence CGACAGCATGTATGCACATCT [5169-4_46] showed a pKd (NapdU at P, 2'-OMe 12) of 10.03.
For the sequence CGACAGCATGTATGCACATCT [5169-4_47], the pKd (NapdU at P, 2'-OMe 16) is 10.80.
The sequence CGACAGCATGTATGCACATCT [5169-4_48] gave a pKd (NapdU at P, 2'-OMe 18) of 10.85.
Regarding CGACAGCATGTATGCACATCT [5169-4_49], the pKd (NapdU at P, 2'-OMe 9) is 9.28.
As for CGACAGCATGTATGCACATCT [5169-4_50], the negative logarithm of the Kd (pKd) (NapdU at P, 2'-OMe 11) was 10.33.
The sequence CGACAGCATGTATGCACATCT [5169-4_51] had a pKd (NapdU at P, 2'-OMe 13) of 9.49.
As for CGACAGCATGTATGCACATCT [5169-4_52], the pKd (NapdU at P, 2'-OMe 19) was 9.51.
For CGACAGCATGTATGCACATCT [5169-4_53], the pKd (NapdU at P, 2'-OMe 21) is 10.66.
For CGACAGCATGTATGCACATCT [5169-4_54], under “NapdU at 11,13,19,21, dT at 9, dT substitution”, the pKd is 7.36.
CGACAGCATGTATGCACATCT [5169-4_55] had a pKd (NapdU at 9,13,19,21, dT at 11, dT substitution) of 8.11.
Turning to CGACAGCATGTATGCACATCT [5169-4_57], for the setting “NapdU at 9,11,13,21, dT at 19, dT substitution”, the negative logarithm of the Kd (pKd) was 6.92.
For CGACAGCATGTATGCACATCT [5169-4_80], under “NapdU at P, 2'-OMe 7,16,18”, the pKd is 11.21.
Consider CGACAGCATGTATGCACATCT [5169-4_81], for which the pKd (NapdU at P, 2'-OMe 7,14,16,18) was 11.31.
CGACAGCATGTATGCACATCT [5169-4_82] had a pKd (NapdU at 9,11,13,19, 2'-OMe at G6,C7,G14,A16,A18,C20 and 2'-OMe-NapU21, SB18T, 37 C) of 11.80.
Turning to CGACAGCATGTATGCACATCT [5169-4_83], the pKd (NapdU at P, 2'-OMe 1,6,7,14,15,16,18,20,21) is 11.68.
Under “NapdU at P, 2'-OMe 1,2,4,6,7,11,14-18,20,21”, CGACAGCATGTATGCACATCT [5169-4_86] had a pKd of 10.19.
With CGACAGCATGTATGCACATCT [5169-4_92], the negative logarithm of the Kd (pKd) (NapdU at P, 2'-OMe 1,7,15,16,18,20,21) was 11.28.
CGACAGCATGTATGCACATCT [5169-4_105]: the pKd (NapdU at P, 2'-OMe 6,18,20) is 11.21.
As to CGACAGCATGTATGCACATCT [5169-4_106], the pKd (NapdU at P, 2'-OMe 1,18,20) was 10.80.
As to CGACAGCATGTATGCACATCT [5169-4_107], the pKd (NapdU at P, 2'-OMe 1,6,18) is 10.89.
On to CGACAGCATGTATGCACATCT [5169-4_108], for which, under “NapdU at P, 2'-OMe 1,6,14”, the negative logarithm of the Kd (pKd) was 10.92.
With CGACAGCATGTATGCACATCT [5169-4_109], the pKd (NapdU at P, 2'-OMe 1,6,16) is 10.96.
CGACAGCATGTATGCACATCT [5169-4_110]: the pKd (NapdU at P, 2'-OMe 1,14,16) was 11.30.
For CGACAGCATGTATGCACATCT [5169-4_111], where the note is “NapdU at P, 2'-OMe 7,14,16”, the pKd is 11.32.
Sequence CGACAGCATGTATGCACATCT [5169-4_113] had a pKd (NapdU at P, 2'-OMe 7,16,21) of 10.92.
CGACAGCATGTATGCACATCT [5169-4_114] showed a pKd (NapdU at P, 2'-OMe 7,17,21) of 10.42.
In the case of CGACAGCATGTATGCACATCT [5169-4_115], the pKd (NapdU at P, 2'-OMe 4,7,21) was 10.62.
Consider CGACAGCATGTATGCACATCT [5169-4_116], for which, for the setting “NapdU at P, 2'-OMe 4,17,21”, the pKd is 10.03.
Sequence CGACAGCATGTATGCACATCT [5169-4_117] showed a pKd (NapdU at P, 2'-OMe 4,12,17) of 9.15.
In turn, CGACAGCATGTATGCACATCT [5169-4_118] gave a pKd (NapdU at P, 2'-OMe 2,4,17) of 9.25.
CGACAGCATGTATGCACATCT [5169-4_123]: under “NapdU at P, 2'-OMe 1,20,21”, the negative-log Kd (pKd) was 10.52.
As to CGACAGCATGTATGCACATCT [5169-4_124], for the setting “NapdU at P, 2'-OMe 5,20,21”, the pKd was 9.22.
Take CGACAGCATGTATGCACATCT [5169-4_125]: the pKd (NapdU at P, 2'-OMe 1,5,20) was 9.00.
CGACAGCATGTATGCACATCT [5169-4_127] showed a pKd (NapdU at P, 2'-OMe 16,17,18) of 11.00.
Turning to CGACAGCATGTATGCACATCT [5169-4_128], the pKd (NapdU at P, 2'-OMe 13,14,15) was 10.00.
Sequence CGACAGCATGTATGCACATCT [5169-4_130] showed a pKd (NapdU at P, 2'-OMe 7,8,9) of 8.35.
Regarding CGACAGCATGTATGCACATCT [5169-4_131], the pKd (NapdU at P, 2'-OMe 4,5,6) is 9.19.
CGACAGCATGTATGCACATCT [5169-4_132] gave a pKd (NapdU at P, 2'-OMe 1,2,3) of 9.38.
Regarding CGACAGCATGTATGCACATCT [5169-4_150], the pKd (as 5169-4_146, PS 2, 3' inverted dT) was 10.89.
For CGACAGCATGTATGCACATCT [5169-4_151], the pKd (as 5169-4_146 plus PS 3' of A3, 3'-idT) was 11.22.
Consider CGACAGCATGTATGCACATCT [5169-4_152], for which, where the note is “as 5169-4_146, PS 5, 3' inverted dT”, the pKd is 10.82.
Consider CGACAGCATGTATGCACATCT [5169-4_153], for which the negative-log Kd (pKd) (as 5169-4_146, PS 8, 3' inverted dT) was 10.89.
CGACAGCATGTATGCACATCT [5169-4_154]: the pKd (as 5169-4_146 plus PS 3' of P9, 3'-idT, 1.8-fold weaker than parent) was 10.59.
For the sequence CGACAGCATGTATGCACATCT [5169-4_155], the pKd (as 5169-4_146, PS 10, 3' inverted dT) was 11.16.
For the sequence CGACAGCATGTATGCACATCT [5169-4_156], the pKd (as 5169-4_146, PS 11, 3' inverted dT) is 11.11.
For the setting “as 5169-4_146, PS 12, 3' inverted dT”, CGACAGCATGTATGCACATCT [5169-4_157] gave a pKd of 10.74.
On to CGACAGCATGTATGCACATCT [5169-4_158], for which the pKd (as 5169-4_146, PS 13, 3' inverted dT) is 10.72.
With CGACAGCATGTATGCACATCT [5169-4_159], for the setting “as 5169-4_146, PS 19, 3' inverted dT”, the pKd is 10.82.
Take CGACAGCATGTATGCACATCT [5169-4_172]: the negative logarithm of the Kd (pKd) (as 5169-4_146, PS 1, 3' inverted dT) is 10.89.
As to CGACAGCATGTATGCACATCT [5169-4_173], the pKd (as 5169-4_146, PS 4, 3' inverted dT) is 11.04.

Source of the values: patent publication US20160177307.
